Test results as given in patent US20260000736A1, “PURIFIED LACTOFERRIN COMPOSITIONS AND METHODS OF USE” (Lactea Therapeutics LLC, priority 2023, published 2026).
“And” between values parts separate entries of the source, which are not always exact repeats. Identical values can stand only once.

How the values were obtained:
[1] = Differential Scanning Calorimetry (DSC) of apolactoferrin and hololactoferrin forms; type: physicochemical; details: 10 mg/mL
Description: Di[…] Calorimetry (DSC) was used to assess the hololactoferrin and apolactoferrin forms through monitoring unfolding temperatures of lactoferrin samples using a nanoDSC (TA Instruments, Lindon, UT) according to standard DSC protocols known to those of skill in the art (e.g., see Hinz et al “M[…] […] OF […] ON […] DI[…] CALORIMETRY”; herein incorporated by reference for all purposes.
API-E2 Lactoferrin (10 mg/mL), produced as described herein, was assessed by DSC. […] The lack of other peaks indicates the lack of contaminants and impurities and can assess API-E2 as ˜100%. […] Additionally, the lack of other peaks also indicated the purity of API-E2 Lactoferrin. […] The API-E2 hololactoferrin peak has a Tm of 88.38+/−0.8 C and a delta H of 632.7+/−7.2 kJ/mol. The hololactoferrin natively accounted for on average 8.74+/−1.39% of the total API-E2 lactoferrin with apolactoferrin accounting for the rest in the samples tested. However, the hololactoferrin percentage can be naturally variable. The API-E2 was calculated by this technique to contain virtually 100% pure lactoferrin.
The assay was also performed with heat-treated API-E2 Lactoferrin. API-E2 Lactoferrin was heated across a range of 50-100° C.
Lab-grade standard lactoferrin and a commercially available supplement-grade lactoferrin were also assessed by DSC under the conditions used to assess API-E2 above.

[2] = test system: E. coli 0157; test: Bacterial growth inhibition, OD600 after 16 h; type: cell-based; details: 1 mg/mL Lf, 16 h at 37° C.; for Relative Bacterial Growth, Replicate 1 / Relative Bacterial Growth, Replicate 2 / Relative Bacterial Growth, Replicate 3: 10∝CFU/mL E. coli 0157 in LB, OD600 relative to untreated
Description: As an analytical standard for the assessment of Lactoferrin (Lf) activity, 1 mg/mL Lf was added to 10∝CFU/mL E. coli 0157 in LB and incubated for 16 h at 37° C. Lactea Lactoferrin (Lactea-Lf) was produced as described in the above examples. Assessed were three independent lots of Lactea-Lf, impure samples which were generated by co-eluting Lactoperoxidase and Lactoferrin (co-elution), samples with degradation products generated by eluting Lactoferrin from old milk which was left for three days (Degradation Products), and a Sigma Aldrich Lactoferrin L9507 (Research Standard). As shown in FIG. 16 and quantified in Table 5, in the Lactea-Lf lots assessed, less than 5% the total growth of bacteria was observed as assessed by OD600 relative to the growth of untreated bacteria under these conditions. In this case, co-elution samples were samples which have a detectable peak of LPO as observable in MALDI-TOF M/S or HPLC. Degradation Products had identifiable degradation peaks as observed in HPLC or DSC.

[3] = test system: E. coli 0157; test: Bacterial growth timecourse, OD600; type: cell-based; details: 1 mg/mL; for Bacterial Growth Timecourse, Replicate 1 / Bacterial Growth Timecourse, Replicate 2 / Bacterial Growth Timecourse, Replicate 3: OD600 relative to no treatment control at 24 hours
Description: For a more detailed comparison of Lactea-Lf antimicrobial activity relative to the Sigma Aldrich Lactoferrin, Lactea-Lf and Sigma Aldrich Lactoferrin were incubated at 1 mg/mL with for E. coli 0157 in LB seeded at 10∝CFU/mL. […] Results were quantified and reported as a percent of the OD600 of the no treatment control at 24 hours for all timepoints.

[4] = test system: E. coli 0157; test: Biofilm formation, crystal violet assay; type: cell-based; details: for Biofilm Inhibition, Replicate 1 / Biofilm Inhibition, Replicate 2 / Biofilm Inhibition, Replicate 3: 24 hours
Description: Lactoferrin was assessed for biofilm growth inhibition. To study the relative concentration dependent efficacy of Lactea-Lf and the Sigma Aldrich research standard Lactoferrin in inhibiting biofilm formation, Lf was added at concentrations ranging from 2 mg/mL to 0.31 mg/mL (2-fold serial dilution curve) to E. coli 0157 in LB seeded at 10∝CFU/mL and incubated for 37° C. for 24 hours. Lactea Lactoferrin (Lactea-Lf) was produced as described in the above examples. The biofilm was stained using a standard crystal violet assay. A quantification of the inhibition of biofilm formation (FIG. 18A) and an image of a representative plate (FIG. 18B) are shown.

[5] = test system: Escherichia coli; test: Biofilm formation, crystal violet assay; type: cell-based; details: 24 hours of growth
[6] = test system: Candida auris; test: Biofilm formation, crystal violet assay; type: cell-based; details: 24 hours of growth
[7] = test system: Cryptococcus neoformans; test: Biofilm formation, crystal violet assay; type: cell-based; details: 24 hours of growth
[8] = test system: pigs with dermatome wounds; test: Pig dermatome wound healing model; type: in vivo; details: dermatome wounds 40×40 mm at a depth of 0.76 mm, topical treatment
Description: In a first assessment in a pig model setting, using a dermatome, six wounds were made on each pig with three on the left side and three on the right side of each pig covering a surface area of 40×40 mm at a depth of 0.76 mm. […] For each pig, the wounds on the left of the animal were treated while the wounds on the right wide were left as untreated controls. […] Standard of care was advised on by veterinarians with experience in dealing with wound management in a farm setting.

B1: Lactea-Lf: bovine lactoferrin purified from raw untreated milk by cation exchange chromatography and filtration according to Example 1 (protein)
chain: APRKNVRWCTISQPEWFKCRRWQWRMKKLGAPSITCVRRAFALECIRAIAEKKADAVTLDGGMVFEAGRDPYKLRPVAAEIYGTKESPQTHYYAVAVVKKGSNFQLDQLQGRKSCHTGLGRSAGWVIPMGILRPYLSWTESLEPLQGAVAKFFSASCVPCIDRQAYPNLCQLCKGEGENQCACSSREPYFGYSGAFKCLQDGAGDVAFVKETTVFENLPEKADRDQYELLCLNNSRAPVDAFKECHLAQVPSHAVVARSVDGKEDLIWKLLSKAQEKFGKNKSRSFQLFGSPPGQRDLLFKDSALGFLRIPSKVDSALYLGSRYLTTLKNLRETAEEVKARYTRVVWCAVGPEEQKKCQQWSQQSGQNVTCATASTTDDCIVLVLKGEADALNLDGGYIYTAGKCGLVPVLAENRKTSKYSSLDCVLRPTEGYLAVAVVKKANEGLTWNSLKDKKSCHTAVDRTAGWNIPMGLIVNQTGSCAFDEFFSQSCAPGRDPKSRLCALCAGDDQGLDKCVPNSKEKYYGYTGAFRCLAEDVGDVAFVKNDTVWENTNGESTADWAKNLNREDFRLLCLDGTRKPVTEAQSCHLAVAPNHAVVSRSDRAAHVKQVLLHQQALFGKNGKNCPDKFCLFKSETKNLLFNDNTECLAKLGGRPTYEEYLGTEYVTAIANLKKCSTSPLLEACAFLTR
With B1 the “% of Total, Apolactoferrin” value [1] was 91.26 +/− 1.39%, the “% of Total, Hololactoferrin” value ([1]; listed as API-E2) was 8.74+/−1.39% and the “Delta H, Apolactoferrin peak” value ([1]; listed as API-E2) was 111.4 ± 2.2 kcal/mol. The “Delta H, Hololactoferrin peak” value ([1]; listed as API-E2) was 151.2 ± 1.72 kcal/mol, the “Tm, Apolactoferrin peak” value ([1]; listed as API-E2) was 60.2+/−0.8 C and 60.2 +/− .8 C and the “Tm, Hololactoferrin peak” value ([1]; listed as API-E2) was 88.38+/−0.8 C and 88.38 +/− .8 C. For the same molecule, the “Relative Bacterial Growth, Replicate 1” value ([2]; listed as Lactea-Lf Lot 1) was 3.15E−09, the “Relative Bacterial Growth, Replicate 2” value ([2]; listed as Lactea-Lf Lot 1) was 0.002228 and the “Relative Bacterial Growth, Replicate 3” value ([2]; listed as Lactea-Lf Lot 1) was 0.04512. For the same molecule, the “Relative Bacterial Growth, Replicate 1” value ([2]; listed as Lactea-Lf Lot 2) was 0.01532, the “Relative Bacterial Growth, Replicate 2” value ([2]; listed as Lactea-Lf Lot 2) was 0.005292 and the “Relative Bacterial Growth, Replicate 3” value ([2]; listed as Lactea-Lf Lot 2) was 0.01281. The “Relative Bacterial Growth, Replicate 1” value ([2]; listed as Lactea-Lf Lot 3) was 0.003621, the “Relative Bacterial Growth, Replicate 2” value ([2]; listed as Lactea-Lf Lot 3) was 0.01059 and the “Relative Bacterial Growth, Replicate 3” value ([2]; listed as Lactea-Lf Lot 3) was 0.008635. For the same molecule, the “total growth of bacteria by OD600 relative to the growth of untreated bacteria” value [2] was “less than 5%”, the “inhibition of bacterial growth over time” value ([3]; E. coli 0157 in LB) was “near complete inhibition of bacterial growth up to 18 hours” and the “time at which bacterial growth became observable / evident” value ([3]; E. coli 0157 in LB) was 21 h. The “Bacterial Growth Timecourse, Replicate 1” value ([3]; 3 h) was −0.00372, the “Bacterial Growth Timecourse, Replicate 2” value ([3]; 3 h) was −0.00129 and the “Bacterial Growth Timecourse, Replicate 3” value ([3]; 3 h) was 0.02246. The “Bacterial Growth Timecourse, Replicate 1” value ([3]; 6 h) was 0.007916, the “Bacterial Growth Timecourse, Replicate 2” value ([3]; 6 h) was 0.01196 and the “Bacterial Growth Timecourse, Replicate 3” value ([3]; 6 h) was 0.03279. The “Bacterial Growth Timecourse, Replicate 1” value ([3]; 9 h) was 0.01583, the “Bacterial Growth Timecourse, Replicate 2” value ([3]; 9 h) was 0.02246 and the “Bacterial Growth Timecourse, Replicate 3” value ([3]; 9 h) was 0.02019. For the same molecule, the “Bacterial Growth Timecourse, Replicate 1” value ([3]; 12 h) was 0.04443, the “Bacterial Growth Timecourse, Replicate 2” value ([3]; 12 h) was 0.04136 and the “Bacterial Growth Timecourse, Replicate 3” value ([3]; 12 h) was 0.02633. For the same molecule, the “Bacterial Growth Timecourse, Replicate 1” value ([3]; 15 h) was 0.04976, the “Bacterial Growth Timecourse, Replicate 2” value ([3]; 15 h) was 0.05816 and the “Bacterial Growth Timecourse, Replicate 3” value ([3]; 15 h) was 0.04685. For the same molecule, the “Bacterial Growth Timecourse, Replicate 1” value ([3]; 18 h) was 0.04152, the “Bacterial Growth Timecourse, Replicate 2” value ([3]; 18 h) was 0.0399 and the “Bacterial Growth Timecourse, Replicate 3” value ([3]; 18 h) was 0.04281. For the same molecule, the “Bacterial Growth Timecourse, Replicate 1” value ([3]; 21 h) was 0.1997, the “Bacterial Growth Timecourse, Replicate 2” value ([3]; 21 h) was 0.1696 and the “Bacterial Growth Timecourse, Replicate 3” value ([3]; 21 h) was 0.106. For the same molecule, the “Bacterial Growth Timecourse, Replicate 1” value ([3]; 24 h) was 0.3648, the “Bacterial Growth Timecourse, Replicate 2” value ([3]; 24 h) was 0.2898 and the “Bacterial Growth Timecourse, Replicate 3” value ([3]; 24 h) was 0.2034. For the same molecule, the “concentrations at which potent biofilm inhibition is seen” value ([4]; E. coli 0157, 24 hours) was at least 100 µg/mL, the “Biofilm Inhibition, Replicate 1” value ([4]; [Lf] 0.031 mg/mL) was 0.6591 and the “Biofilm Inhibition, Replicate 2” value ([4]; [Lf] 0.031 mg/mL) was 0.8959. The “Biofilm Inhibition, Replicate 3” value ([4]; [Lf] 0.031 mg/mL) was 0.7811, the “Biofilm Inhibition, Replicate 1” value ([4]; [Lf] 0.063 mg/mL) was 0.1874 and the “Biofilm Inhibition, Replicate 2” value ([4]; [Lf] 0.063 mg/mL) was 0.1722. For the same molecule, the “Biofilm Inhibition, Replicate 3” value ([4]; [Lf] 0.063 mg/mL) was 0.2125, the “Biofilm Inhibition, Replicate 1” value ([4]; [Lf] 0.125 mg/mL) was 0.03395 and the “Biofilm Inhibition, Replicate 2” value ([4]; [Lf] 0.125 mg/mL) was 0.1076. For the same molecule, the “Biofilm Inhibition, Replicate 3” value ([4]; [Lf] 0.125 mg/mL) was 0.0806, the “Biofilm Inhibition, Replicate 1” value ([4]; [Lf] 0.25 mg/mL) was 0.04609 and the “Biofilm Inhibition, Replicate 2” value ([4]; [Lf] 0.25 mg/mL) was 0.07314. The “Biofilm Inhibition, Replicate 3” value ([4]; [Lf] 0.25 mg/mL) was 0.07011, the “Biofilm Inhibition, Replicate 1” value ([4]; [Lf] 0.5 mg/mL) was 0.04858 and the “Biofilm Inhibition, Replicate 2” value ([4]; [Lf] 0.5 mg/mL) was 0.0748. For the same molecule, the “Biofilm Inhibition, Replicate 3” value ([4]; [Lf] 0.5 mg/mL) was 0.08915, the “Biofilm Inhibition, Replicate 1” value ([4]; [Lf] 1 mg/mL) was 0.02346 and the “Biofilm Inhibition, Replicate 2” value ([4]; [Lf] 1 mg/mL) was 0.09274. The “Biofilm Inhibition, Replicate 3” value ([4]; [Lf] 1 mg/mL) was 0.02898, the “Biofilm Inhibition, Replicate 1” value ([4]; [Lf] 2 mg/mL) was 0.006072 and the “Biofilm Inhibition, Replicate 2” value ([4]; [Lf] 2 mg/mL) was 0.01601. The “Biofilm Inhibition, Replicate 3” value ([4]; [Lf] 2 mg/mL) was −0.01297, the “Inhibition of Biofilm Formation” value [5] was “Strong (Lf was deemed to have a strong activity if biofilms were eliminated or significantly reduced to less than 90% less than no treatment at concentrations of 10 mg/mL or less after 24 hours of growth)” and the “Inhibition of Biofilm Formation” value [6] was “Strong (Lf was deemed to have a strong activity if biofilms were eliminated or significantly reduced to less than 90% less than no treatment at concentrations of 10 mg/mL or less after 24 hours of growth)”. For the same molecule, the “Inhibition of Biofilm Formation” value [7] was “Strong (Lf was deemed to have a strong activity if biofilms were eliminated or significantly reduced to less than 90% less than no treatment at concentrations of 10 mg/mL or less after 24 hours of growth)” and the wound healing [8] was “healing occurred within one day”.
